From article PMC3097235 come the findings set out here.

The chains are these.
B1: human tyrosinase: kifunensine (protein)
parent chain: MLLAVLYCLLWSFQTSAGHFPRACVSSKNLMEKECCPPWSGDRSPCGQLSGRGSCQNILLSNAPLGPQFPFTGVDDRESWPSVFYNRTCQCSGNFMGFNCGNCKFGFWGPNCTERRLLVRRNIFDLSAPEKDKFFAYLTLAKHTISSDYVIPIGTYGQMKNGSTPMFNDINIYDLFVWMHYYVSMDALLGGSEIWRDIDFAHEAPAFLPWHRLFLLRWEQEIQKLTGDENFTIPYWDWRDAEKCDICTDEYMGGQHPTNPNLLSPASFFSSWQIVCSRLEEYNSHQSLCNGTPEGPLRRNPGNHDKSRTPRLPSSADVEFCLSLTQYESGSMDKAANFSFRNTLEGFASPLTGIADASQSSMHNALHIYMNGTMSQVQGSANDPIFLLHHAFVDSIFEQWLRRHRPLQEVYPEANAPIGHNRESYMVPFIPLYRNGDFFISSKDLGYDYSYLQDSDPDSFQDYIKSYLEQASRIWSWLLGAAMVGAVLTALLAGLVSLLCRHKRKQLPEEKQPLLMEKEDYHSLYQSHL
B2: human tyrosinase: Δ7 (protein)
parent chain: B1 parent chain
B3: human tyrosinase: Δ2 (protein)
parent chain: B1 parent chain
B4: human tyrosinase: Δ4 (protein)
parent chain: B1 parent chain
B5: human tyrosinase: Δ6 (protein)
parent chain: B1 parent chain
B6: human tyrosinase: Δ1 (protein)
parent chain: B1 parent chain
B7: human tyrosinase: Δ3 (protein)
parent chain: B1 parent chain
B8: human tyrosinase: Δ(5,6,7) (protein)
parent chain: B1 parent chain
B9: human tyrosinase: Δall (protein)
parent chain: B1 parent chain

One data set can be described thus: pulse-chase IP of wild type, degradation. The following applies: glycan changed form; control: untreated.
With B1, the degradation_or_half_life result was “increases”.

A further data set is described as follows: pulse-chase, DTT accessibility of disulfides, non-reducing SDS-PAGE. The note with it: glycan lost; control: wild type.
With B2, the stability_or_folding entry is “decreases”.

A further data set in a line: Endo H resistance (ER exit), immunoblot. The note with it: glycan lost; control: wild type. (In general: In western blotting, separated proteins are transferred to a membrane and probed.)
Regarding B3, the localisation_or_trafficking result is listed as “abolishes”.
The same measure, in the same setting: as for B2, the entry is “abolishes”.
As to B4, the localisation_or_trafficking result is given as “abolishes”.
Still for that read-out and setting: as for B5, the entry is “abolishes”.
On the same count and under the same terms, as for B6, the entry is “decreases”.
On the same count and under the same terms, as for B7, the entry is “abolishes”.

Another data set in a line: immunofluorescence co-localisation with ERGIC-53, nocodazole-treated cells. The following applies: glycan lost; control: wild type.
For the protein B3, the localisation_or_trafficking entry is given as “no change”.
Same read-out and setting: next, B2: “no change”; B4: “no change”; B5: “no change”.
Still for that read-out and setting: as for B6, the entry is “no change”.
Regarding B7, the localisation_or_trafficking entry is listed as “no change”.

The nature of a further data set: DOPA oxidase recovery after culture at 31°C. The note with it: glycan lost; control: wild type.
With B3, the stability_or_folding entry is “decreases”.
B2: the stability_or_folding entry is “abolishes”.
On the same count and under the same terms, next, B4: “decreases”; B5: “decreases”; B6: “decreases”.
On the same count and under the same terms, next, B7: “decreases”.

A further data set in a line: DOPA oxidase specific activity, cells at 37°C. The following applies: glycan lost; control: wild type.
In the case of B3, the “enzymatic_activity, percent_of_wt” value is “decreases, The remaining mutants show intermediate activity, ranging from 25% to 30%”.
For the protein B2, the “enzymatic_activity, percent_of_wt” value is on record as “abolishes”.
Still for that read-out and setting: as for B4, the entry is “decreases, The remaining mutants show intermediate activity, ranging from 25% to 30%”; as for B5, “abolishes”; as for B6, “decreases, The remaining mutants show intermediate activity, ranging from 25% to 30%”.
B7: the “enzymatic_activity, percent_of_wt” value is “decreases, The remaining mutants show intermediate activity, ranging from 25% to 30%”.

A short description of the next data set: immunofluorescence co-localisation with ER marker calnexin. The note with it: glycan lost; control: wild type.
On to B3, for which the localisation_or_trafficking entry is listed as “changes”.
On the same count and under the same terms, next, B2: “changes”.
Same read-out and setting: next, B4: “changes”; B5: “changes”.
Same read-out and setting: next, B6: “changes”; B7: “changes”.

A further data set in a line: pulse-chase IP with or without kifunensine. The note with it: glycan lost; control: wild type (accumulates with kifunensine).
As to B2, the “other: kifunensine rescue from degradation” value is recorded as “no change”.
Still for that read-out and setting: as for B8, the entry is “decreases”; as for B9, “abolishes”.
